The text below walks through data of US20110207796.

Data set [1] deals with alpha-synuclein A30P familial mutant.
Data set [2] has as its system alpha-synuclein A53T familial mutant.
In data set [3] the test system is alpha-synuclein E46K familial mutant.
Data set [4] has as its target beta synuclein (UniProt Q16143).
For data set [5], the system named is human alpha-synuclein (wild-type, recombinant).

Chain of Polo like kinase 2 (PLK2) (chain): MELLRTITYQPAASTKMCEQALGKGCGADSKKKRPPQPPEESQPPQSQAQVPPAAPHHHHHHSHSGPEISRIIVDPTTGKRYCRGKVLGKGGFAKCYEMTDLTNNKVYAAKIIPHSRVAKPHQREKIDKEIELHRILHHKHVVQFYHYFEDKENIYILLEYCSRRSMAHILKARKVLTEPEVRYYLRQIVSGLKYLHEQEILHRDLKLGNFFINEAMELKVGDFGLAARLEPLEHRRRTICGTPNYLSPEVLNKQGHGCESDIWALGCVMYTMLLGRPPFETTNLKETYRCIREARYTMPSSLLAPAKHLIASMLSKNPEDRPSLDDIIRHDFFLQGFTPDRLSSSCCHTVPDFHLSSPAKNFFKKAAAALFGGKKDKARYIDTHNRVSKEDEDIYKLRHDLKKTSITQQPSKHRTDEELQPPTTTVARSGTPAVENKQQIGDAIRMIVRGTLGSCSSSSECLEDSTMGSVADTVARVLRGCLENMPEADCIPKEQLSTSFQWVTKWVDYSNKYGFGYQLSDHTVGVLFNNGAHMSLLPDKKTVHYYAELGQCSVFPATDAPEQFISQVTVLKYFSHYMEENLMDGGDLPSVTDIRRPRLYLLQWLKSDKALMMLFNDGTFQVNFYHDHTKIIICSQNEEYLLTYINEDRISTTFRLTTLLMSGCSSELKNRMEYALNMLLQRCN
Chain of beta synuclein (Q16143 whole entry): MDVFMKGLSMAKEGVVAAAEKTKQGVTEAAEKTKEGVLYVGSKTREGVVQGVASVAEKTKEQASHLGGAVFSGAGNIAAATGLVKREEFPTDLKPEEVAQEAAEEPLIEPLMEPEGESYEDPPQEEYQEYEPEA

Take Polo like kinase 2 (PLK2): the “in vitro phosphorylation, autoradiography” value (from here on “in vitro phosphorylation”) in data set [1] is on record as “the mutant alpha-synucleins were phosphorylated more at a given concentration (especially at lower concentrations) than WT”. Moreover, the “in vitro phosphorylation” value in data set [2] is recorded as “the mutant alpha-synucleins were phosphorylated more at a given concentration (especially at lower concentrations) than WT”. Further, in data set [3], the “in vitro phosphorylation” value was “the mutant alpha-synucleins were phosphorylated more at a given concentration (especially at lower concentrations) than WT”. Further, the “in vitro phosphorylation” value in data set [4] is reported as “minimally against beta synuclein”. In data set [5], the Fold Change in Percent Synuclein Phosphorylation (ELISA, HEK-293 overexpression) stood at 21.2 fold; the “Proportion of total synuclein that is phoshorylated at ser-129 (ELISA, HEK-293 overexpression)” value came to 42.3%; the “S129 phosphorylation, immunoblot (mAb 11A5), kinase:rAS 1:200 molar” value (shortened to “S129 phosphorylation … kinase:rAS 1:200 molar”) was “Prominent signals came from GRK6, CKI, CKII and PLK2”; the “S129 phosphorylation, immunoblot (mAb 11A5), rank of signal” value is recorded as “CKI>GRK6>PLK2>GRK4>GRK5>GRK2”. In addition, in data set [5], the “in vitro biochemical assay, phosphorylation of synuclein” value is “PLK2 and PLK3 having extremely robust phosphorylation of synuclein”; the “in vitro kinase reaction, phosphorylation of alpha-synuclein at serine 129” value was “capable of phosphorylating alpha-synuclein specifically at serine 129 and did not phosphorylate serine 87 in vitro”; the “in vitro phosphorylation” value is recorded as “PLK2 was found to be more active against wild-type alpha synuclein than beta synuclein”; the “phospho ser-129 in vitro, kinases normalized for molarity” value is “roughly equivalent levels of phospho ser-129 between CKI, GRK6 and PLK2”. In addition, the “phosphorylation of alpha-synuclein at S129 on co-expression in bacteria, mass spectrometry” value in data set [5] is given as “more than 95% phosphorylated”.

As to casein kinase 2 (CKII), in data set [5], the “S129 phosphorylation in vitro, kinases normalized by activity units” value is “CKII was not detectable”; the “S129 phosphorylation … kinase:rAS 1:200 molar” value is “Prominent signals came from GRK6, CKI, CKII and PLK2”.

With casein kinase I (CKI), in data set [5], the “S87 phosphorylation, immunoblot (pAb ELADW-110), kinase:rAS 1:200 molar” value was “A signal was detected only with CKI phosphorylation”; the “S129 phosphorylation in vitro, kinases normalized by activity units” value is “CKI gave a modest signal”; the “S129 phosphorylation … kinase:rAS 1:200 molar” value is “Prominent signals came from GRK6, CKI, CKII and PLK2”; the “S129 phosphorylation, immunoblot (mAb 11A5), rank of signal” value is given as “CKI>GRK6>PLK2>GRK4>GRK5>GRK2”. Also, the “phospho ser-129 in vitro, kinases normalized for molarity” value in data set [5] was “roughly equivalent levels of phospho ser-129 between CKI, GRK6 and PLK2”.
